Measured values reported in PMC3689955.

Molecular target: XRCC4/Ligase IV (XL) (UniProt Q13426)
Sequence (Q13426 whole entry, chain 1 of 2): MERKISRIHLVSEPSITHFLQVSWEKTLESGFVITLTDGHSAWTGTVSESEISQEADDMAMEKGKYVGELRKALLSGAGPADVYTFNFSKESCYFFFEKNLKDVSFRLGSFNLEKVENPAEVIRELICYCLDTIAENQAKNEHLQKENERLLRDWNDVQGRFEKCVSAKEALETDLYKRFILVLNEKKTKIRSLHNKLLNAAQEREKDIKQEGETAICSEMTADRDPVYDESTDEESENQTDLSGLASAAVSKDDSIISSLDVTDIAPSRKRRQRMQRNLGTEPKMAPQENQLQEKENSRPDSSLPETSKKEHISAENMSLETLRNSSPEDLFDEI
Sequence (P49917 whole entry, chain 2 of 2, further chain): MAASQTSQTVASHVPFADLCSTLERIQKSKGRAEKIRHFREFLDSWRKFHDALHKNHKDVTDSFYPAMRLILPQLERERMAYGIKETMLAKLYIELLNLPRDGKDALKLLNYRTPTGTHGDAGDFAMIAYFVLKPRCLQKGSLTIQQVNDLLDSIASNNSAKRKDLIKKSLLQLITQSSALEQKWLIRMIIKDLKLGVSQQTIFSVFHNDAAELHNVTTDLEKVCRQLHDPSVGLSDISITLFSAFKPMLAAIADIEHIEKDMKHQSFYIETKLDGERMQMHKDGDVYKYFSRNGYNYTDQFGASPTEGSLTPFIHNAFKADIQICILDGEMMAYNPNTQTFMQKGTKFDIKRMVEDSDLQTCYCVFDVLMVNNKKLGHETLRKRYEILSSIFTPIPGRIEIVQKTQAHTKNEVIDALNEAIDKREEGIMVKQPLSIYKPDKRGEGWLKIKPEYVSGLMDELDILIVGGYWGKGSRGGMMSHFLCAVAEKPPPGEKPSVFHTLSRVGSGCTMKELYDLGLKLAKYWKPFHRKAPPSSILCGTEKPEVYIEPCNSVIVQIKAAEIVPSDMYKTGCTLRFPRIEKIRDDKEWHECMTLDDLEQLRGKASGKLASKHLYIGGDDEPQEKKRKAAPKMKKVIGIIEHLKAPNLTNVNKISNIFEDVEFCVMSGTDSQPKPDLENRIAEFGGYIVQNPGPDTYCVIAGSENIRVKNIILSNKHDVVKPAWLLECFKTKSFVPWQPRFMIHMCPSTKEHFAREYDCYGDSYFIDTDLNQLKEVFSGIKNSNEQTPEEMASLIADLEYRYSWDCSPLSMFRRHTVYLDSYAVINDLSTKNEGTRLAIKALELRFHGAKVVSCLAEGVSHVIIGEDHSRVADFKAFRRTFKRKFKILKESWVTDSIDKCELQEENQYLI

Sequence of XRCC4-like factor (XLF, also known as Cernunnos) (Q9H9Q4 whole entry): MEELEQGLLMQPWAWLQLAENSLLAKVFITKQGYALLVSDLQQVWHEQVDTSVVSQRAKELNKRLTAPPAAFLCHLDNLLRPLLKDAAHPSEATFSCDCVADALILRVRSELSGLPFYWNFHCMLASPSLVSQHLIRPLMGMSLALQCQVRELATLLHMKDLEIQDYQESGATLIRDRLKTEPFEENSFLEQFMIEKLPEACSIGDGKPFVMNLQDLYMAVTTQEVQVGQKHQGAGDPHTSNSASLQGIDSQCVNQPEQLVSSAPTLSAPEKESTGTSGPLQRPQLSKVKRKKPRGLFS

Substance: XRCC4-like factor (XLF, also known as Cernunnos) (from UniProt Q9H9Q4 1-299) (natural protein)
- stoichiometry N (XL to XLF molar ratio): 1
